# Experimental data taken from patent US20090318350A1, “PAN-HER ANTAGONISTS AND METHODS OF USE” (priority 2006, published 2009).
# Like-named read-outs stand apart in the source and are kept apart here.
# Columns and labels:
# Her-3 [1] = biological target: T1, Her-3 (Homo sapiens, UniProt P21860); assay: Phage ELISA whole-cell binding, T47D cells; set-up: host or cells: T47D human ductal carcinoma cells, whole-cell suspension; settings: for binding properties relative to WVS and WVS-R41DL47G / Calculated binding (EC50) in T47D cells: phage fusion
# T1 sequence (P21860 20-1342): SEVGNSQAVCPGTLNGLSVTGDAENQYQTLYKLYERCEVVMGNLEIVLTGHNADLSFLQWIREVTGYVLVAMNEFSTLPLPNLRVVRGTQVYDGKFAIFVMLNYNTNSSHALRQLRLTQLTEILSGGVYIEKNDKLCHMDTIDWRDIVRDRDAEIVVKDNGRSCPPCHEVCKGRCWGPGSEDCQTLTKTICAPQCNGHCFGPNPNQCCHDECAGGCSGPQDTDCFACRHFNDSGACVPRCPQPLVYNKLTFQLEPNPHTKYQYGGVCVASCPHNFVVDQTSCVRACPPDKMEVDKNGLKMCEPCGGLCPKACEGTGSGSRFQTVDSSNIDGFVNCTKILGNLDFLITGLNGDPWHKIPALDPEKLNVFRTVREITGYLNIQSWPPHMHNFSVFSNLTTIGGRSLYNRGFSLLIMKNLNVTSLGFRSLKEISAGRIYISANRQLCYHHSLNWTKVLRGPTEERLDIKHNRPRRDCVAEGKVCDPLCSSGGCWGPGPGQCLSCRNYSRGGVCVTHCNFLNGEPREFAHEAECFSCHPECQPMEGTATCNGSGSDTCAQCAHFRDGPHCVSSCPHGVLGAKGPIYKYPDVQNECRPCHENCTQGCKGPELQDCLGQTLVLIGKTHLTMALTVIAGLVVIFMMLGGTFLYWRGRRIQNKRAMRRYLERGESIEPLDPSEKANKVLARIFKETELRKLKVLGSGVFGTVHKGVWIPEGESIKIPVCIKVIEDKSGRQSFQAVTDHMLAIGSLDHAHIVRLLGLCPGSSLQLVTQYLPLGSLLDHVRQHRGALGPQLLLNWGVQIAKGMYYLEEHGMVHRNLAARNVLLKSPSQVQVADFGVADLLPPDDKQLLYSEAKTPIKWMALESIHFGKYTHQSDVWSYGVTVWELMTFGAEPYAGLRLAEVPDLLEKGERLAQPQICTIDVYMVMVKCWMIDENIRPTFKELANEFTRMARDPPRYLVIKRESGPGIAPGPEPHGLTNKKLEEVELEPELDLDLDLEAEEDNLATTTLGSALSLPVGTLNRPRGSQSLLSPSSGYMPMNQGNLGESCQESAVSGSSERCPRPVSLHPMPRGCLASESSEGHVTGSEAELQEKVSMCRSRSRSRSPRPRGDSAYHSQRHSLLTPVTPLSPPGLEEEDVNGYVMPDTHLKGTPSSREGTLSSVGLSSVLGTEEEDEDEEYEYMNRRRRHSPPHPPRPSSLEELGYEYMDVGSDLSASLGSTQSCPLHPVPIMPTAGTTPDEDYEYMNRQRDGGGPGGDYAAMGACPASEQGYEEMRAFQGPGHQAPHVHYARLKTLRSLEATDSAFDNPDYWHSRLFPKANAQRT
# Method: (§1) A431 cells for EGFR binding or T47D cells for HER3 binding were grown as monolayers in tissue culture flasks in media containing fetal bovine serum. Cells were trypsinized, neutralized with growth medium, washed twice with DPBS and resuspended in ice-cold PBS-Glu-T. 105 cells were transferred to 96 well plates and incubated on ice for 1 hour in the presence of varied concentrations of phage. Cells were centrifuged and washed 5× with PBS-T then incubated for one hour at room temperature with anti-M13 pVIII coat protein antibody conjugated with horseradish peroxidase (HRP). Cells again centrifuged and washed 5× with PGS-T. Color developed with TMP followed by H2SO4. Cells pelleted and supernatant transferred to optically transparent plate for measurement of absorbance at 450 nm.
# (§2) Theoretical estimates were also performed. “N.D.” indicates not determined. […]
# (§3) Human ductal carcinoma cells were obtained from ATCC. They were maintained in RPMI 1640 medium with 2 mM L-glutamine adjusted to contain 1.5 g/L sodium bicarbonate, 4.5 g/L glucose, 10 mM HEPES, and 1.0 mM sodium pyruvate and supplemented with 0.2 Units/ml bovine insulin, 90%; fetal bovine serum, 10%. T47-D cells were used to evaluate HER3 receptor binding.
# (§4) The phage fusion ligand variants were then evaluated for binding using the assay described herein in both A431 cells (to investigate EGFR binding) and T47D cells (to investigate HER3 receptor binding) and EC50s were calculated.
# EGFR = biological target: T2, EGFR (Homo sapiens, UniProt P00533); assay: Phage ELISA whole-cell binding, A431 cells; settings: for ligand binding, from the binding curves / binding properties relative to WVS and WVS-R41DL47G: A431 cells; for ligand binding, from the binding curves / Calculated binding (EC50): phage-displayed ligand; for Calculated binding (EC50): A431 whole cell suspension, Abs450, Table 10; for binding properties relative to WVS and WVS-R41DL47G / Calculated binding (EC50) in A431 cells: phage fusion
# T2 construct: host or cells: A431 human epidermoid carcinoma cells, whole-cell suspension
# Method: as §1, with “nm. […]” for “nm.”
# The human epidermoid carcinoma line, A431, were obtained from ATCC. Stock cultures of A-431 were propagated in DMEM medium containing 10% fetal bovine serum. A431 cells were used to evaluate EGFR receptor binding.
# as §4
# MCF-7 cells = settings: cited from earlier work
# HER5 cells = settings: cited from earlier work; for stimulation of cell proliferation in EGFR-dependent HER5 cells: isolated ligand variants, previously demonstrated
# HER3 receptor = assay: Phage ELISA whole-cell binding, T47D cells; set-up: species or system human; settings: A431 (EGFR) versus T47D (HER3) binding, phage fusion
# Method: as §1, §2
# as §3, with “T47-D cells were used to evaluate HER3 receptor binding.” left out
# as §4
# Her-3 [2] = biological target: T1, Her-3; settings: particularly for Her-3; cited from earlier work
# [3] = T47D whole cell suspension, phage-displayed ligand, Abs450
# [4] = isolated ligand variants, previously demonstrated
Substance,Estimated binding (EC50) (Her-3 [1]; [3]),Calculated binding (EC50) (EGFR),"Calculated binding (EC50) in T47D cells (Her-3 [1]; Table 15, second half loop)","Calculated binding (EC50) in A431 cells (EGFR; Table 15, second half loop)","Calculated binding (EC50) in T47D cells (Her-3 [1]; Table 14, first half loop)","Calculated binding (EC50) in A431 cells (EGFR; Table 14, first half loop)",stimulation of cell proliferation in EGFR-dependent HER5 cells (HER5 cells),other results
"BiR: heregulin/EGF chimera, amino terminal residues NSDSE replaced with heregulin SHLVK; SEQ ID NO 2 (SHLVKCPLSHDGYCLHDGVCMYIEALDKYACNCVVGYIGERCQYRDLKWWELR; Ligand Variant)",,,,,,,capable of stimulating cell proliferation,stimulation of MCF-7 cells (MCF-7 cells; [4]): very weakly; stimulation of MCF-7 cells (MCF-7 cells; stated as known): can be stimulated; stimulation of HER5 cells (HER5 cells; stated as known): can be stimulated
"T1E: EGF/TGFα chimera, amino terminal residues NSDSE replaced with VVSHFND from TGF-α; SEQ ID NO 4 (VVSHFNDCPLSHDGYCLHDGVCMYIEALDKYACNCVVGYIGERCQYRDLKWWELR; Ligand Variant) [reference compound]",1 × 10^10 phage titer/mL,,,,,,capable of stimulating cell proliferation,
"D4-2: WVS background, B-loop YRVKTLDKYA (first half YRVKT); SEQ ID 43 (Ligand Variant)",,,,,8.6 × 10^10 phage titer/mL,3.6 × 10^10 phage titer/mL,,receptor binding selectivity (HER3 receptor): bind only the HER3 receptor
"WVS: EGF variant, amino acids 2 and 3 replaced with W and V, N-terminus NWVSE; SEQ ID NO 3 (NWVSECPLSHDGYCLHDGVCMYIEALDKYACNCVVGYIGERCQYRDLKWWELR; Ligand Variant) [reference compound]",9 × 10^8 phage titer/mL,6.6 × 10^8 phage titer/mL,7.6 × 10^9 phage titer/mL,1.4 × 10^9 phage titer/mL,7.5 × 10^9 phage titer/mL,1.9 × 10^9 phage titer/mL,capable of stimulating cell proliferation,"Calculated binding (EC50) (Her-3 [1]; T47D whole cell suspension, phage-displayed ligand, Abs450, Table 9): 9.8 × 10^9 phage titer/mL; stimulation of MCF-7 cells (MCF-7 cells; [4]): stimulated most effectively; binding affinity (Her-3 [2]): high binding affinity"
"D4: WVS background, B-loop MYIEAYRVKT (second half YRVKT); SEQ ID 42 (Ligand Variant)",,,2.9 × 10^10 phage titer/mL,3.9 × 10^9 phage titer/mL,,,,binding properties relative to WVS and WVS-R41DL47G (Her-3 [1]; T47D cells): intermediate binding properties; binding properties relative to WVS and WVS-R41DL47G (EGFR): intermediate binding properties
"wvs-R41DL47G: WVS background, R at position 41 replaced by D, L at position 47 replaced by G; SEQ ID NO 5 (NWVSECPLSHDGYCLHDGVCMYIEALDKYACNCVVGYIGEDCQYRDGKWWELR; Ligand Variant)",,4.8 × 10^12 phage titer/mL,2.6 × 10^11 phage titer/mL,4.0 × 10^10 phage titer/mL,1.1 × 10^12 phage titer/mL,2.8 × 10^10 phage titer/mL,,"ligand binding, from the binding curves (Her-3 [1]; T47D cells, phage-displayed ligand): greatly attenuated; ligand binding, from the binding curves (EGFR): greatly attenuated"

# Further lines, with some results ahead:
Estimated binding (EC50) (Her-3 [1]; [3]),Calculated binding (EC50) (EGFR),"Calculated binding (EC50) in T47D cells (Her-3 [1]; Table 15, second half loop)","Calculated binding (EC50) in A431 cells (EGFR; Table 15, second half loop)","Calculated binding (EC50) in T47D cells (Her-3 [1]; Table 14, first half loop)","Calculated binding (EC50) in A431 cells (EGFR; Table 14, first half loop)",Substance,stimulation of cell proliferation in EGFR-dependent HER5 cells (HER5 cells),other results
>1 × 10^12 phage titer/mL,5.8 × 10^11 phage titer/mL,,,,,"wvs-R41D: WVS background, R at position 41 replaced by D; SEQ ID NO 6 (NWVSECPLSHDGYCLHDGVCMYIEALDKYACNCVVGYIGEDCQYRDLKWWELR; Ligand Variant)",,"ligand binding, from the binding curves (EGFR): greatly attenuated"
,,3.1 × 10^10 phage titer/mL,5.2 × 10^9 phage titer/mL,,,"E8: WVS background, B-loop MYIEATKYRG (second half TKYRG); SEQ ID 44 (Ligand Variant)",,binding properties relative to WVS and WVS-R41DL47G (Her-3 [1]; T47D cells): intermediate binding properties; binding properties relative to WVS and WVS-R41DL47G (EGFR): intermediate binding properties
,6.6 × 10^10 phage titer/mL,,,,,"wvs-L47G: WVS background, L at position 47 replaced by G; SEQ ID NO 7 (NWVSECPLSHDGYCLHDGVCMYIEALDKYACNCVVGYIGERCQYRDGKWWELR; Ligand Variant)",,
